B1: 101-51-1A5 ATRIMER (designed binder)
chain: EPPTQKPKKIVNAKKDVVNTKMFEELKSRLDTLAQEVALLKEQQALQTVCLKGTKVHMKCFLAFTQTKTFHEASEDCISRGGTLSTPQTGSENDALYEYLRQSVGNEAEIWLGLNGSALTNTWVDMTGARIAYKNWENGHEPQPRGGFGYFGENCAVLSGAANGKWFDKRCRDQLPYICQFGIV
B2: 101-51-1A9 ATRIMER (designed binder)
chain: EPPTQKPKKIVNAKKDVVNTKMFEELKSRLDTLAQEVALLKEQQALQTVCLKGTKVHMKCFLAFTQTKTFHEASEDCISRGGTLSTPQTGSENDALYEYLRQSVGNEAEIWLGLNGSALTNTWVDMTGARIAYKNWEPARQPQPGGGFGYFGENCAVLSGAANGKWFDKRCRDQLPYICQFGIV
modifications: ATRIMER is a homotrimer; one protomer is given.
notes: not shown: C-terminal purification tag: Myc/His6 (pANA4) or HA-StrepII (pANA10)
B3: 101-54-4B10 ATRIMER (designed binder)
chain: EPPTQKPKKIVNAKKDVVNTKMFEELKSRLDTLAQEVALLKEQQALQTVCLKGTKVHMKCFLAFTQTKTFHEASEDCISRGGTLSTPQTGSENDALYEYLRQSVGNEAEIWLGLNGSALTNTWVDMTGARIAYKNWERPPLYQPGGGFGYFGENCAVLSGAANGKWFDKRCRDQLPYICQFGIV
modifications: ATRIMER is a homotrimer; one protomer is given.
notes: as for B2
B4: 101-113-6C102 ATRIMER (designed binder)
chain: EPPTQKPKKIVNAKKDVVNTKMFEELKSRLDTLAQEVALLKEQQALQTVCLKGTKVHMKCFLAFTQTKTFHEASEDCISRGGTLSTPQTGSENDALYEYLRQSVGNEAEIWLGLNGSNVTQTWVDMTGARIAYKNWEPPPPHHPQGGFGVFGENCAVLSGAANGKWFDKRCRDQLPYICQFGIV
modifications: ATRIMER is a homotrimer; one protomer is given.
notes: as for B2
B5: 105-08-1A3 ATRIMER (designed binder)
chain: EPPTQKPKKIVNAKKDVVNTKMFEELKSRLDTLAQEVALLKEQQALQTVCLKGTKVHMKCFLAFTQTKTFHEASEDCISRGGTLSTPQTGSENDALYEYLRQSVGNEAEIWLGLNGSPRTDTWVDMTGARIAYKNWETEITAQPDGGWGVFGENCAVLSGAANGKWFDKRCRDQLPYICQFGIV
notes: not shown: C-terminal tag: Myc/His6 (pANA4) or HA-StrepII (pANA10); A Ser left at the ompA junction may also sit at the N-terminus
B6: 105-20-2A3 ATRIMER (designed binder)
chain: EPPTQKPKKIVNAKKDVVNTKMFEELKSRLDTLAQEVALLKEQQALQTVCLKGTKVHMKCFLAFTQTKTFHEASEDCISRGGTLSTPQTGSENDALYEYLRQSVGNEAEIWLGLNGSPITNTWVDMTGARIAYKNWETEITAQPDGGFGYFGENCAVLSGAANGKWFDKRCRDQLPYICQFGIV
notes: as for B5
B7: 105-20-2F12 ATRIMER (designed binder)
chain: EPPTQKPKKIVNAKKDVVNTKMFEELKSRLDTLAQEVALLKEQQALQTVCLKGTKVHMKCFLAFTQTKTFHEASEDCISRGGTLSTPQTGSENDALYEYLRQSVGNEAEIWLGLNGSKLTDTWVDMTGARIAYKNWETEITAQPDGGFGYFGENCAVLSGAANGKWFDKRCRDQLPYICQFGIV
notes: not shown: C-terminal tag: His/Myc (pANA4) or HA-StrepII (pANA10)
B8: 105-78-2E6 ATRIMER (designed binder)
chain: EPPTQKPKKIVNAKKDVVNTKMFEELKSRLDTLAQEVALLKEQQALQTVCLKGTKVHMKCFLAFTQTKTFHEASEDCISRGGTLSTPQTGSENDALYEYLRQSVGNEAEIWLGLNGSLRTNTWVDMTGARIAYKNWETEITAQPDGGFGVFGENCAVLSGAANGKWFDKRCRDQLPYICQFGIV
notes: as for B2
B9: A4A ATRIMER (designed binder)
chain: EPPTQKPKKIVNAKKDVVNTKMFEELKSRLDTLAQEVALLKEQQALQTVCLKGTKVHMKCFLAFTQTKTFHEASEDCISRGGTLSTPQTGSENDALYEYLRQSVGNEAEIWLGLNWTLAKNLWVDMTGARIAYKNWETEITAQPDGGLFGRGENCAVLSGAANGKWFDKRCRDQLPYICQFGIV
modifications: Forms a homotrimer through the tetranectin coiled coil; one protomer is given.
notes: also called 001-87.A4A
B10: B9B ATRIMER (designed binder)
chain: EPPTQKPKKIVNAKKDVVNTKMFEELKSRLDTLAQEVALLKEQQALQTVCLKGTKVHMKCFLAFTQTKTFHEASEDCISRGGTLSTPQTGSENDALYEYLRQSVGNEAEIWLGLNAPPDLGLWVDMTGARIAYKNWETEITAQPDGGWGVWGENCAVLSGAANGKWFDKRCRDQLPYICQFGIV
modifications: Forms a homotrimer through the tetranectin coiled coil; one protomer is given.
notes: also called 056-41.B9B
B11: C3C ATRIMER (designed binder)
chain: EPPTQKPKKIVNAKKDVVNTKMFEELKSRLDTLAQEVALLKEQQALQTVCLKGTKVHMKCFLAFTQTKTFHEASEDCISRGGTLSTPQTGSENDALYEYLRQSVGNEAEIWLGLNANRRRTMWVDMTGARIAYKNWETEITAQPDGGMGVWGENCAVLSGAANGKWFDKRCRDQLPYICQFGIV
modifications: Forms a homotrimer through the tetranectin coiled coil; one protomer is given.
notes: also called 001-89.C3C
B12: 105-20-1B3 ATRIMER (designed binder)
chain: EPPTQKPKKIVNAKKDVVNTKMFEELKSRLDTLAQEVALLKEQQALQTVCLKGTKVHMKCFLAFTQTKTFHEASEDCISRGGTLSTPQTGSENDALYEYLRQSVGNEAEIWLGLNGSALTNTWVDMTGARIAYKNWETEITAQPDGGFGYFGENCAVLSGAANGKWFDKRCRDQLPYICQFGIV
notes: as for B5
B13: 1a7b (=A8G) DR 5 ATRIMER (designed binder)
chain: EPPTQKPKKIVNAKKDVVNTKMFEELKSRLDTLAQEVALLKEQQALQTVCLKGTKVHMKCFLAFTQTKTFHEASEDCISRGGTLSTPQTGSENDALYEYLRQSVGNEAEIWLGLNRAWLRPRWVDMTGARIAYKNWETEITAQPDGGTLVSGENCAVLSGAANGKWFDKRCRDQLPYICQFGIV
modifications: Homotrimer (ATRIMER) of this chain; one protomer is given.
notes: also called 029-15.A8G; not shown: C-terminal tag (His/Myc of pANA4, HA-StrepII of pANA10, or that of pANA19)
B14: 8b6b (=A1H) DR 5 ATRIMER (designed binder)
chain: EPPTQKPKKIVNAKKDVVNTKMFEELKSRLDTLAQEVALLKEQQALQTVCLKGTKVHMKCFLAFTQTKTFHEASEDCISRGGTLSTPQTGSENDALYEYLRQSVGNEAEIWLGLNRAVLRPRWVDMTGARIAYKNWETEITAQPDGGWVLGGKNCAVLSGAANGKWFDKRCRDQLPYICQFGIV
modifications: Homotrimer (ATRIMER) of this chain; one protomer is given.
notes: also called 029-15.A1H; not shown: C-terminal tag (His/Myc of pANA4, HA-StrepII of pANA10, or that of pANA19)
B15: 101-80-5H3 ATRIMER (designed binder)
chain: EPPTQKPKKIVNAKKDVVNTKMFEELKSRLDTLAQEVALLKEQQALQTVCLKGTKVHMKCFLAFTQTKTFHEASEDCISRGGTLSTPQTGSENDALYEYLRQSVGNEAEIWLGLNGSALTNTWVDMTGARIAYKNWEPPAPYHPMAAGVFGENCAVLSGAANGKWFDKRCRDQLPYICQFGIV
modifications: ATRIMER is a homotrimer; one protomer is given.
notes: one residue deleted from Loop 4 (-GVFG); the GlyGly to AlaAla change; not shown: C-terminal purification tag: Myc/His6 (pANA4) or HA-StrepII (pANA10)
B16: 9b3d (=B3D) DR 5 ATRIMER (designed binder)
chain: EPPTQKPKKIVNAKKDVVNTKMFEELKSRLDTLAQEVALLKEQQALQTVCLKGTKVHMKCFLAFTQTKTFHEASEDCISRGGTLSTPQTGSENDALYEYLRQSVGNEAEIWLGLNELRTDGLWVDMTGARIAYKNWETEITAQPDGGVMRRSENCAVLSGAANGKWFDKRCRDQLPYICQFGIV
modifications: Homotrimer (ATRIMER) of this chain; one protomer is given.
notes: also called 029-15.B3D; not shown: C-terminal tag (His/Myc of pANA4, HA-StrepII of pANA10, or that of pANA19)
B17: 2a1a (=B9F) DR 5 ATRIMER (designed binder)
chain: EPPTQKPKKIVNAKKDVVNTKMFEELKSRLDTLAQEVALLKEQQALQTVCLKGTKVHMKCFLAFTQTKTFHEASEDCISRGGTLSTPQTGSENDALYEYLRQSVGNEAEIWLGLNKRVWYRGWVDMTGARIAYKNWETEITAQPDGGMRRRRENCAVLSGAANGKWFDKRCRDQLPYICQFGIV
modifications: Homotrimer (ATRIMER) of this chain; one protomer is given.
notes: also called 029-15.B9F; not shown: C-terminal tag (His/Myc of pANA4, HA-StrepII of pANA10, or that of pANA19)

How the values were obtained:
[1] = target: T1, recombinant human IL-23R/Fc chimera (R&D Systems) (human, UniProt Q5VWK5 24-353); experiment: competition ELISA against IL-23
T1 construct: bought; also called human IL-23R/Fc fusion protein; rhIL23RFc
T1 sequence (looked up): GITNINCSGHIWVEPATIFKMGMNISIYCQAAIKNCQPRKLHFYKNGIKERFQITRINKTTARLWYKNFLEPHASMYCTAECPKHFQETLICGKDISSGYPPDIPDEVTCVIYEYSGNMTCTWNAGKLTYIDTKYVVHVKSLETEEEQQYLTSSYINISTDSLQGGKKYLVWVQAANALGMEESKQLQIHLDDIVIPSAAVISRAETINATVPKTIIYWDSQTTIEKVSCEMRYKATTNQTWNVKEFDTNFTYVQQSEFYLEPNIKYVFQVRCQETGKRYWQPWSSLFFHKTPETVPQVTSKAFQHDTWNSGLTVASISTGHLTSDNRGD
Experimental: Assays were performed generally as follows. Individual wells in Immulon HB2 plates were incubated overnight at 4° C. with 100 μL PBS containing 100 ng of an anti-human IgG Fc (R&D MAB 110 clone 97924). Plates were washed five times with PBS/0.05% Tween 20, and wells were incubated for 1.5 h at RT with 100 μL each of PBS containing 50 ng of recombinant human IL-23R/Fc. […] Competitor was included at a final concentration of 1 μg/mL. After incubation, plates were washed as described and wells were incubated for 40 min at RT with 100 μL each of PBS containing a 1:5000 dilution of streptavidin-HRP conjugate (Pierce catalog no. 21130). After washing, wells were incubated with 100 μL each of TMB (BioFX Lab catalog no. TMBH-1000-0) for up to 30 min at RT. Reactions were stopped with an equal volume of 0.2 M sulfuric acid.

[2] = target: T1, recombinant human IL-23R/Fc chimera …; experiment: SPR (Biacore), captured IL-23R/Fc, ATRIMER
Experimental: A Biacore 3000 biosensor (GE Healthcare) was used to evaluate the interaction of human IL-23R and receptor binders. Immobilization of an anti-human IgG Fc antibody (GE Heathcare) to the CM5 chip (Biacore) was performed using standard amine coupling chemistry, and this modified surface was used to capture a recombinant human IL-23R/Fc fusion protein (R&D Systems). A low-density receptor surface, less than 200 RU, was used for all of the analyses. ATRIMER™ polypeptide complex dilutions (1-500 nM) were injected over the IL-23R surface at 30 μl/min and kinetic constants were derived from the sensorgram data using the Biaevaluation software (version 3.1, GE Healthcare). Data collection was 3 minutes for the association and 5 minutes for dissociation. The anti-human IgG surface was regenerated with a 30 s pulse of 3M magnesium chloride. All sensorgrams were double-referenced against an activated and blocked flow-cell as well as buffer injections.

[3] = target: recombinant human DR 5 receptor Fc fusion protein (R&D Systems) (human); experiment: SPR (Biacore), captured DR5/Fc
Sequence of recombinant human DR 5 receptor Fc fusion protein (R&D Systems) (human) (chain, as listed by the source): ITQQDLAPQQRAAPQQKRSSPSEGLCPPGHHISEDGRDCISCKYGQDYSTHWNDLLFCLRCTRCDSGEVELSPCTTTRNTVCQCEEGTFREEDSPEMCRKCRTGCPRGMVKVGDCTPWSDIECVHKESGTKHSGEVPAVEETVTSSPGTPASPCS

Binder | Ratio IC50 to 056-53.H4E IC50 [1] [ratio] | Ka [2] [M⁻¹] | Kd [2] [nM] | koff [2] [s⁻¹] | kon [2] [M⁻¹ s⁻¹] | Ka [3] [M⁻¹] | Kd [3] [nM] | koff [3] [s⁻¹] | kon [3] [M⁻¹ s⁻¹]
B1 | 1 | 1.71e+09 | 0.584 | 0.000289 | 495000 |  |  |  | 
B2 | 2.2 | 1.05e+09 | 0.955 | 0.000329 | 345000 |  |  |  | 
B3 | 1.4 | 1.11e+09 | 0.897 | 0.000429 | 479000 |  |  |  | 
B4 | 2 | 9.62e+08 | 1.04 | 0.000283 | 271000 |  |  |  | 
B5 | 1.1 | 2.11e+09 | 0.473 | 0.000348 | 735000 |  |  |  | 
B6 | 1.2 | 1.32e+09 | 0.759 | 0.000312 | 412000 |  |  |  | 
B7 | 2.8 | 5.41e+08 | 1.85 | 0.000471 | 254000 |  |  |  | 
B8 | 1 |  |  |  |  |  |  |  | 
B9 |  | 1.24e+08 | 8.08 | 0.000409 | 50600 |  |  |  | 
B10 |  | 1.94e+08 | 5.15 | 0.000478 | 92800 |  |  |  | 
B11 |  | 1.2e+08 | 8.34 | 0.000483 | 57900 |  |  |  | 
B12 | 1.2 |  |  |  |  |  |  |  | 
B13 |  |  |  |  |  | 6.43e+07 | 15.6 | 0.000629 | 40500
B14 |  |  |  |  |  | 2.56e+07 | 39.1 | 0.000506 | 12900
B15 | 11.3 | 1.55e+08 | 6.46 | 0.000327 | 50500 |  |  |  | 
B16 |  |  |  |  |  | 1.11e+06 | 899 | 0.000104 | 116
B17 |  |  |  |  |  | 2.38e+07 | 42.8 | 0.00184 | 43800
